B1: ABP1 F49F (protein, UniProt P15891 2-592, looked up)
Actin-binding protein: ALEPIDYTTHSREIDAEYLKIVRGSDPDTTWLIISPNAKKEYEPESTGSSFHDFLQLFDETKVQYGLARVSPPGSDVEKIIIIGWCPDSAPLKTRASFAANFAAVANNLFKGYHVQVTARDEDDLDENELLMKISNAAGARYSIQTSSKQQGKASTPPVKKSFTPSKSPAPVSKKEPVKTPSPAPAAKISSRVNDNNDDDDWNEPELKERDFDQAPLKPNQSSYKPIGKIDLQKVIAEEKAKEDPRLVQKPTAAGSKIDPSSDIANLKNESKLKRDSEFNSFLGTTKPPSMTESSLKNDDDKVIKGFRNEKSPAQLWAERKAKQNSGNAETKAEAPKPEVPEDEPEGEPDVKDLKSKFEGLAASEKEEEEMENKFAPPPKKSEPTIISPKPFSKPQEPVKAEEAEQPKTDYKKIGNPLPGMHIEADNEEEPEENDDDWDDDEDEAAQPPLPSRNVASGAPVQKEEPEQEEIAPSLPSRNSIPAPKQEEAPEQAPEEEIEEEAEEAAPQLPSRSSAAPPPPPRRATPEKKPKENPWATAEYDYDAAEDNELTFVENDKIINIEFVDDDWWLGELEKDGSKGLFPSNYVSLGN
modifications: synonymous F49F
B2: ABP1 Y53Y (protein, UniProt P15891 2-592, looked up)
Actin-binding protein: B1 Actin-binding protein
modifications: synonymous codon change Y53Y
B3: ABP1 P50P (protein, UniProt P15891 2-592, looked up)
Actin-binding protein: B1 Actin-binding protein
modifications: synonymous codon change P50P
B4: ABP1 S51S (protein, UniProt P15891 2-592, looked up)
Actin-binding protein: B1 Actin-binding protein
modifications: synonymous codon S51S
B5: ABP1 V20V (protein, UniProt P15891 2-592, looked up)
Actin-binding protein: B1 Actin-binding protein
modifications: synonymous V20V codon change in SH3
B6: ABP1 N22N (protein, UniProt P15891 2-592, looked up)
Actin-binding protein: B1 Actin-binding protein
modifications: synonymous codon change N22N
B7: ABP1 E21E (protein, UniProt P15891 2-592, looked up)
Actin-binding protein: B1 Actin-binding protein
modifications: synonymous codon change E21E in SH3
B8: ABP1 T18T (protein, UniProt P15891 2-592, looked up)
Actin-binding protein: B1 Actin-binding protein
modifications: synonymous codon change T18T
B9: ABP1 D23D (protein, UniProt P15891 2-592, looked up)
Actin-binding protein: B1 Actin-binding protein
modifications: synonymous codon change D23D
B10: ABP1 F19F (protein, UniProt P15891 2-592, looked up)
Actin-binding protein: B1 Actin-binding protein
modifications: synonymous codon change F19F
B11: YDR329C (protein, UniProt P28795 1-441, looked up)
Peroxisomal biogenesis factor …: MAPNQRSRSLLQRHRGKVLISLTGIAALFTTGSVVVFFVKRWLYKQQLRITEQHFIKEQIKRRFEQTQEDSLYTIYELLPVWRMVLNENDLNLDSIVTQLKDQKNQLTRAKSSESRESSPLKSKAELWNELELKSLIKLVTVTYTVSSLILLTRLQLNILTRNEYLDSAIKLTMQQENCNKLQNRFYNWVTSWWSDPEDKADDAMVMAAKKSKKEGQEVYINEQAFLSLSWWILNKGWLSYNEIITNQIEIEFDGIHPRDTLTLEEFSSRLTNIFRNTNSQIFQQNNNNLTSILLPKDSSGQEFLLSQTLDADALTSFHSNTLVFNQLVNELTQCIESTATSIVLESLINESFHFIMNKVGIKTIAKKKPGQEDQQQYQMAVFAMSMKDCCQEMLQTTAGSSHSGSVNEYLATLDSVQPLDDLSASVYSNFGVSSSFSFKP
B12: YGL153W (protein, UniProt P53112 2-341, looked up)
Peroxisomal membrane protein …: SDVVSKDRKALFDSAVSFLKDESIKDAPLLKKIEFLKSKGLTEKEIEIAMKEPKKDGIVGDEVSKKIGSTENRASQDMYLYEAMPPTLPHRDWKDYFVMATATAGLLYGAYEVTRRYVIPNILPEAKSKLEGDKKEIDDQFSKIDTVLNAIEAEQAEFRKKESETLKELSDTIAELKQALVQTTRSREKIEDEFRIVKLEVVNMQNTIDKFVSDNDGMQELNNIQKEMESLKSLMNNRMESGNAQDNRLFSISPNGIPGIDTIPSASEILAKMGMQEESDKEKENGSDANKDDNAVPAWKKAREQTIDSNASIPEWQKNTAANEISVPDWQNGQVEDSIP

This is an account of results in paper PMC7954794, “Protein context shapes the specificity of SH3 domain-mediated interactions in vivo” (Nature Communications, 2021).

For the first experiment, the system named is Hua2. Put plainly: Deep mutational scanning of Abp1 SH3, Abp1-Hua2 DHFR-PCA (DMS score). The experiment is classed as cell-based, Saccharomyces cerevisiae. Conditions: Abp1-Hua2 DHFR-PCA, MTX2; scaled to synonymous mutation distribution. How it is done: (§1) Single site mutation libraries were generated by a PCR-based saturation mutagenesis method[50] as described below. The mutagenesis was carried out on the pUC19 plasmid containing the SH3 domain sequence of ABP1 flanked by its homology arms subsequently used in the CRISPR mediated genomic re-integration. We used oligos containing degenerate nucleotides (NNN) to carry out the mutagenesis at each codon of the domain sequence. In the first step of the two-step PCR procedure (short PCR step), an amplicon was generated with an oligo containing the degenerate codon which is positioned within the domain sequence, and another oligo lying outside Abp1 sequence in the plasmid. Short PCR step was carried out with the following settings: 5 min at 95 °C, 35 cycles: 20 s at 98 °C, 15 s at 60 °C, 30 s at 72 °C, and a final extension of 1 min at 72 °C. The amplicon generated in this step was used as a mega primer in the second step (long PCR step) to amplify the whole plasmid. Long PCR step was carried out with the following settings: 5 min at 95 °C, 22 cycles: 20 s at 98 °C, 15 s at 68 °C, 3 min 30 s at 72 °C, and a final extension of 5 min at 72 °C. The long PCR product was digested for 2 h at 37 °C with DpnI. The digestion product was then transformed into E. coli MC1061 competent cells. In order to obtain most of the 64 possible codons, we recovered ~1000 colonies from each plate to retrieve the plasmid single mutant libraries. Saturation mutagenesis was carried out in a codon-position-wise manner. Mutants at each position were stored separately. Library quality control was assessed by amplifying the purified plasmid DNA preparations by PCR followed by Illumina sequencing as described below. The genomic insertion of the mutant libraries (one library per amino acid position) was performed by targeting the stuffer sequence in the ABP1 SH3-deleted strain as described in the strain construction section. ABP1 SH3-deleted yeast competent cells were co-transformed with pCAS containing the stuffer-specific gRNA and PCR amplified ABP1 SH3 single position mutated libraries from the pUC19 preparations. As for the library generation, ~1000 colonies from each plate were retrieved. Glycerol stocks of yeast cells were kept for each position (58 different stocks corresponding to the 58 amino acid positions of Abp1 SH3). The stocks were also validated by Illumina sequencing (see below).
(§2) Liquid DHFR-PCA experiments were performed following the generation of the ABP1 SH3 single position mutated yeast strains and were performed in biological independent duplicates. An overnight culture was started in YPD + NAT by adding the same number of cells from each yeast mutant strain (master pool). Then, the master pool and Hua2-DHFR F[3] or Lsb3-DHFR F[3] preys strains were mixed in YPD (2:1) for mating and incubated for 8 h at 30 °C. Diploid cells were selected the first time by transferring the mixture in a YPD + NAT + HPH (OD 0.5) culture for 16 h at 30 °C. The next day, the first diploid selection was transferred in SC complete pH 6.0 + NAT + HPH at 0.5 OD and the culture was grown for 24 h at 30 °C. The validation of the yeast mutant libraries was done the next day with a fraction of the diploid cells (first DHFR-PCA experiment time point without PCA selection, reference condition S2) by amplifying ABP1 SH3 genomic sequence followed by Illumina sequencing as described in the section below. Following the selection, diploid cells OD was read using a TECAN Infinite F200 Pro, and dilutions to 0.1 OD in PCA selection media without agar in a 50 mL tube was done. Tubes were incubated at 30 °C for 72 h (second-time point of the DHFR-PCA experiment, first PCA selection). A fraction of the cells (5U OD) was collected for Illumina sequencing. The cells from the first PCA step were grown for a second PCA selection step using the same procedures. […]
In the case of B1, the “hua2sc: Frequencies scaled to the synonymous mutation distribution (DMS score)” value (“hua2sc: Frequencies scaled” for short) was determined as 0.1177.

As to B2, the “hua2sc: Frequencies scaled” value is reported as -0.26.

B3: the “hua2sc: Frequencies scaled” value is listed as -0.6569.

Regarding B4, the “hua2sc: Frequencies scaled” value was -0.02064.

Still in this experiment, the particulars now being: Abp1-Hua2 DHFR-PCA, MTX2; single amino acid variants of Abp1 SH3.
Regarding B1, the “HUA2_MTX2: frequencies normalized to the reference condition” value (from here on “HUA2_MTX2: frequencies normalized”) worked out at 1.73.

As to B2, the “HUA2_MTX2: frequencies normalized” value is given as 1.353.

Turning to B3, the “HUA2_MTX2: frequencies normalized” value was determined as 0.9559.

With B4, the “HUA2_MTX2: frequencies normalized” value was 1.592.

The experiment is the same for the next values; noted with them: classification from both Hua2 and Lsb3 DMS scores; Dest. both / Dest. Hua2 / Dest. Lsb3 / Neutral.
On to B1, for which the “quadrant (effect of mutation on Hua2 and Lsb3 interactions)” value (“quadrant” below) is reported as “Neutral”.

For the molecule B2, the “quadrant” value is “Neutral”.

Regarding B3, the “quadrant” value is listed as “Neutral”.

Regarding B4, the “quadrant” value is given as “Neutral”.

The same experiment, now with this note: frequencies normalized to the reference condition; Abp1-Hua2 DHFR-PCA, MTX2; amino acid level.
Molecule B5 registered an HUA2_MTX2 of 1.042.

Molecule B6 came in with an HUA2_MTX2 of 0.8417.

B7 displayed an HUA2_MTX2 of 2.3423.

Molecule B8 gave an HUA2_MTX2 of 1.603.

B9: the HUA2_MTX2 was 1.908.

Regarding B10, the HUA2_MTX2 was found to be 2.091.

The experiment is the same for the next values; noted with them: frequencies scaled to the synonymous mutation distribution; Abp1-Hua2 DHFR-PCA.
On to B5, for which the “hua2sc (DMS score)” value is recorded as -0.571.

Regarding B6, the “hua2sc (DMS score)” value is reported as -0.7711.

For B7, the “hua2sc (DMS score)” value is 0.7295.

For the molecule B8, the “hua2sc (DMS score)” value is listed as -0.009347.

With B9, the “hua2sc (DMS score)” value amounted to 0.295.

Consider B10, for which the “hua2sc (DMS score)” value is given as 0.4783.

In a further experiment the test system is Lsb3. Put plainly: Deep mutational scanning of Abp1 SH3, Abp1-Lsb3 DHFR-PCA (DMS score). In kind it is cell-based, Saccharomyces cerevisiae. As to conditions: Abp1-Lsb3 DHFR-PCA, MTX2; scaled to synonymous mutation distribution. How it is done: as §1, §2
As for B1, the “lsb3sc: Frequencies scaled to the synonymous mutation distribution (DMS score)” value (from here on “lsb3sc: Frequencies scaled”) was -0.3759.

Consider B2, for which the “lsb3sc: Frequencies scaled” value is on record as -0.1658.

Consider B3, for which the “lsb3sc: Frequencies scaled” value is listed as -0.6263.

Consider B4, for which the “lsb3sc: Frequencies scaled” value is recorded as 0.05209.

Still in this experiment, the particulars now being: Abp1-Lsb3 DHFR-PCA, MTX2; single amino acid variants of Abp1 SH3.
On to B1, for which the “LSB3_MTX2: frequencies normalized to the reference condition” value (from here on “LSB3_MTX2: frequencies normalized”) is 1.124.

Turning to B2, the “LSB3_MTX2: frequencies normalized” value worked out at 1.335.

Take B3: the “LSB3_MTX2: frequencies normalized” value is recorded as 0.874.

On to B4, for which the “LSB3_MTX2: frequencies normalized” value is listed as 1.552.

The experiment is the same for the next values; noted with them: frequencies normalized to the reference condition; Abp1-Lsb3 DHFR-PCA, MTX2; amino acid level.
B5 came in with an LSB3_MTX2 of 1.496.

B6: the LSB3_MTX2 is reported as 0.8355.

In the case of B7, the LSB3_MTX2 was found to be 2.169.

In the case of B8, the LSB3_MTX2 is reported as 1.406.

In turn, B9 came in with an LSB3_MTX2 of 1.357.

In turn, B10 came in with an LSB3_MTX2 of 1.966.

Staying with this experiment, now noted: frequencies scaled to the synonymous mutation distribution; Abp1-Lsb3 DHFR-PCA.
In the case of B5, the “lsb3sc (DMS score)” value is listed as -0.004531.

Take B6: the “lsb3sc (DMS score)” value is listed as -0.6648.

Take B7: the “lsb3sc (DMS score)” value came out at 0.669.

As for B8, the “lsb3sc (DMS score)” value is -0.09387.

On to B9, for which the “lsb3sc (DMS score)” value is reported as -0.1431.

In the case of B10, the “lsb3sc (DMS score)” value is given as 0.4657.

A further experiment deals with BEM1-1. As to the kind of experiment: DHFR-PCA on solid medium, bait BEM1-1 (Fig. 1B). In kind it is cell-based, Saccharomyces cerevisiae. As to conditions: bait BEM1-1, label = prey; 2-8 replicates. The text has this: Supplement 41467_2021_21873_MOESM8_ESM.xlsx, sheet "Fig1B" | column: medsize; medrep; Ratio; Score
Regarding B11, the “medrep (log2 median colony size normalized to plate background, PCA score)” value is recorded as 2.151.

Take B12: the “medrep (log2 median colony size normalized to plate background, PCA score)” value amounted to 2.088.

The same experiment, now with this note: bait BEM1-1, label = prey; only significant differences showed; PPIs completely lost have a ratio of 0.1 and the gained PPIs 2.5.
For B11, the “Ratio (SH3-deleted/WT medrep)” value is recorded as 2.5.

With B12, the “Ratio (SH3-deleted/WT medrep)” value worked out at 2.5.
